This data set concerns the molecule itself.

B1: recombinant Arabidopsis dehydrin LEA14 (AT2G21490) with carboxy-terminal hexahistidyl tag (natural protein)
chain: MADLRDEKGNPIHLTDTQGNPIVDLTDEHGNPMYLTGVVSSTPQHKESTTSDIAEHPTSTVGETHPAAAPAGAGAATAATATGVSAGTGATTTGQQHHGSLEEHLRRSGSSSSSSSEDDGQGGRRKKSIKEKIKEKFGSGKHKDEQTPATATTTGPATTDQPHEKKGILEKIKDKLPGHHNHNHP
By Kd is commonly meant a measure of binding affinity in units of concentration. The protein B1 yielded an equilibrium dissociation constant (Kd) of 13.3 µM.

B2: recombinant soybean dehydrin GmPM12 (Glyma.04G009900.1) with carboxy-terminal hexahistidyl tag (natural protein)
chain: MAEAQLRDQHGNPVPLTDQYGNPVILTDERGNPVQLTGVATTATGTAGSGFGSYGTGAYGGGASATTVADLLATQPRSGREARELRRSSSSSSSSSEDDGQGGRRKKGVKDKIKEKLPGVGGGNNNKEHAHTTTAPTTATNHPADQHEKKGIMERIKEKLPGHHTHLE
B2: the Kd is 6.8 µM.

These data come from PMC11612773 (2024).
